Assay results published in a protein production outcome set (Wang et al. 2014).

Assay: label from the status in PepcDB records

Row | Sequence | protein production
1 | MRRTPRKATAAGALMAATAFLTVGIQAVPATAKPAAPHPSPLRTGGQEAKLTPAQHSALLKSAAKKTTTTAATLGLGAKEKLVVRDVVKDNDGTLHTRYERTWAGLPVLGGDVVVHTPPASLAAGTVSSTFNNKRTIKVASTTASFTRSAAVTKALKAAKDLAAEKATTDSARKVIWAGSGAPKLAWETVIGGLQDDGTPSQLHVITDATTGKELYRYQGVKTGTGNTQYSGTVSLSTTLSGSTYQLYDTTRGGHKTYSLNNGTSGTGTLMTDADDTWGTGSGSNTQTAGADAAYGAQTTWDFYKNTFGRSGIKNDGVAAYSRVHYSTAYVNAFWDDDCFCMTYGDGTSSTHALTSLDVAGHEMSHGVTSNTAGLNYTGESGGLNEATSDIFGTGVEFYAANSSDVGDYLIGEKIDINGDGTPLRYMDEPDKDGGSADSWYSGVGNLDVHYSSGPANHMFYLLSEGSGSKTINGVTYNSPTSDGVAVAGIGRAAALQIWYKALTTYMTSSTNYAGARTAALNAATALYGASSTQYAGVANAFAGINVGSHVTPPTSGVTVTNPGSQSSTVGTAVSLQVSASSTNSGSLTYAATGLPTGLSVNSSTGVISGTPTTAGTYSTTVTVTDSTGATGTASFTWTVSSSGGGGTCASTQLLGNPGFESGNTTWTASSGVITNSSSEAAHAGSYKAWLDGYGSTHTDTLSQSVTIPSGCKASLTFYLHIDTAETTTSTQYDKLTVTAGSTTLATYSNLNAASGYTQKTFDLSSLAGTTVALKFSGVEDSSLQTSFVIDDTALTTS | failed
2 | MRHDDARGRPGTRIAWRATFAAKRGEALRADHLRYRPQAGSPGALHCFVLDCSASMLTAERLARAKGLVVALFDSLARERADAALVCFGGNSAGVRFGPAVPRWWNERWLAPVGAGGGTPLARGIGAATRLLARAARRRPRQQRWLWLLSDGRTTEAPARPAFADRIVIVDFDDAAVRLGRCERLAHAWGAALVTPQALERGGG | failed
3 | APLYIKVHEIDNTAIIVNDGGLPKGTVFSCGLVLEEDVPQGHKVALTDLNQGDEIVRYGEVIGFADETIKRGSWIREALVRMPAP | not failed
4 | PLSFSLLPATRDDIAMIVDRKRAQIARTHQYDVFACGWTVTLLERLVDASAEDFGLRTATLRAGGRVVAAELGLLSEGRYHLWLPIYDPEFARYSPGALMTLDTLEALAGLGVSRVDFGVDAD | failed
5 | TRKVLVLDLDNTLWGGVIGDDGIEGIVIGEGSARGEAFKAFQLYCRALRERGILLAVSSKNDPERALAAFDHPEMVLRRSDFAAFVANWEDKGQGLQRIAQELNLGLEALVFFDDNPAERALLREQFPAVAVPEVPEEPETYIRCLAAAGLFEAV | failed
6 | MQLQVMNSPFNQEQAELLNRLLPTLTESQKIWLSGYLSAQSVSAQEAAGTPAAAVSAEAPAPAVSKEVTVLYGSQTGNAQGLAENAGKQLEQSGFQVTVSSMSDFKPNQLKKVTNLLIVVSTHGEGEPPDNALSFHEFLHGRRAPKLEDLRFSVLALGDSSYEFFCQTGKEFDQRLEELGGKRISPRVDCDLDYDEPAAEWLEGVLKGLNEAGGGSAAPAPAAASQTGESSYSRTNPFRAEVLENLNLNGRGSNKETRHVELSLEGSGLTYEPGDSLGVYPENDPELVELLLKEMNWDPEEIVTLNKQGDVRPLKEALISHYEITVLTKPLLEQAAQLTGNDELRELLAPGNEENVKAYIEGRDLLDLVRDYGPFSVSAQEFVSILRKMPARLYSIASSLSANPDEVHLTIGAVRYDAHGRERKGVCSILCAERLQPGDTLPVYVQHNQNFKLPKDPETPIIMVGPGTGVAPFRSFMQEREETGAEGKAWMFFGDQHFVTDFLYQTEWQNWLKDGVLTKMDVAFSRDTEEKVYVQHRMLEHSAELFEWLQEGAAVYICGDEKHMAHDVHNTLLEIIEKEGNMSREEAEAYLADMQQQKRYQRDVY | failed
7 | MKIAIFGTTLHAGVMAALLAERGNDVFWCADHDYKGLEEQIVCQTYQEQDVNRLLVKQRQLGFLKDCRFSSIPLDIEAYLFCFSPTELQFALEVTQLLNIRPIIHPRLMINGSTFGLHGTEKLKQNLPKDHWVYFPDMIQEGNAINSVLTVKHVIVGVESDYTKTIMHEMLRPFFRFNHQYLFMPILDAEFTKLSISGMLATRISYMNDMALVAEKLGIDIANVKEGMAADTRIGSAYLSAGVGFGGENFSHDILTLSNVVSDTGARSRLLEQVWEINEQQKEVLFRKLWNYYHCDLKDKVVAIWGAAFKENTSNIHNAPIHSMLTALWAQGAIVKLHDPQALEEIQARYGKRNDLILCTEQYEATRGAHALCVMTVWKQYLSPDYKKLQQLMAHPFILDGRNVYDPVYIKQQGFAYEGIGRL | failed
